Target: the molecule itself
Test: velocity sedimentation assay

B1: Drp1 K38A (enzyme)
chain: MEALIPVINKLQDVFNTVGADIIQLPQIVVVGTQSSGASSVLESLVGRDLLPRGTGIVTRRPLILQLVHVSQEDKRKTTGEENGVEAEEWGKFLHTKNKLYTDFDEIRQEIENETERISGNNKGVSPEPIHLKIFSPNVVNLTLVDLPGMTKVPVGDQPKDIELQIRELILRFISNPNSIILAVTAANTDMATSEALKISREVDPDGRRTLAVITKLDLMDAGTDAMDVLMGRVIPVKLGIIGVVNRSQLDINNKKSVTDSIRDEYAFLQKKYPSLANRNGTKYLARTLNRLLMHHIRDCLPELKTRINVLAAQYQSLLNSYGEPVDDKSATLLQLITKFATEYCNTIEGTAKYIETSELCGGARICYIFHETFGRTLESVDPLGGLNTIDILTAIRNATGPRPALFVPEVSFELLVKRQIKRLEEPSLRCVELVHEEMQRIIQHCSNYSTQELLRFPKLHDAIVEVVTCLLRKRLPVTNEMVHNLVAIELAYINTKHPDFADACGLMNNNIEEQRRNRLARELPSAVSRDKVASGGGGVGDGVQEPTTGNWRGMLKTSKAEELLAEEKSKPIPIMPASPQKGHAVNLLDVPVPVARKLSAREQRDCEVIERLIKSYFLIVRKNIQDSVPKAVMHFLVNHVKDTLQSELVGQLYKSSLLDDLLTESEDMAQRRKEAADMLKALQGASQIIAEIRETHLW
B1: binds.

Source: publication PMC4551322 (Molecular Biology of the Cell, 2015)
